Assay results reported in paper PMC7305236.
No end group written: not given here.

Legend:
[1] = biological target: kappa opioid receptor (KOR) (human) (UniProt P41145)
[2] = biological target: mu opioid receptor (MOR) (human) (UniProt P35372)
[3] = biological target: atypical chemokine receptor ACKR3 (formerly CXCR7) (human) (UniProt P25106)
[4] = biological target: delta opioid receptor (DOR) (human) (UniProt P41143)
[5] = biological target: atypical chemokine receptor ACKR3 (formerly CXCR7) (human) (UniProt P25106); remark: listed apart in the source

atypical chemokine receptor ACKR3 (formerly CXCR7) (human), sequence (P25106 whole entry): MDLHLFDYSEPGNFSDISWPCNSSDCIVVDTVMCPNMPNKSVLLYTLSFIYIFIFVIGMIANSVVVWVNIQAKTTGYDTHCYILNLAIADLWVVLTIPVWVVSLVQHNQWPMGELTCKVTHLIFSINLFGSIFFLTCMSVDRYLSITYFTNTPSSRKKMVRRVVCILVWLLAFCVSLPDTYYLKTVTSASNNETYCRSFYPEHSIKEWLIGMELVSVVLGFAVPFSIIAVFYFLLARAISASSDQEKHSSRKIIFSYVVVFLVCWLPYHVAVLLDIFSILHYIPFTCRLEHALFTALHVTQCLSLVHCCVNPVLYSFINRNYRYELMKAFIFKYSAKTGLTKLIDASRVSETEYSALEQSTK

Binder	Supplementary Table 4: EC50 of β-arrestin-1 recruitment to KOR, U87 cells [1] [µM]	Supplementary Table 4: EC50 of β-arrestin-1 recruitment to MOR, U87 cells [2] [µM]	Supplementary Table 4: EC50 of β-arrestin-1 recruitment to ACKR3, U87 cells [3] [µM]	Supplementary Table 4: EC50 of β-arrestin-1 recruitment to DOR, U87 cells [4] [µM]	Supplementary Table 5: EC50 of β-arrestin-1 recruitment to ACKR3 [5] [µM]
YGGWMRRV-NH2 [adrenorphin-derived peptide YGGWMRRV]	> 10	0.522	0.0703	1.02	–
YGGFLRRV-NH2 [adrenorphin-derived peptide YGGFLRRV]	0.0319	0.88	0.684	0.513	–
YGGFMRRA-NH2 [adrenorphin-derived peptide YGGFMRRA]	0.132	0.265	0.201	0.26	–
YGGFMRKV-NH2 [adrenorphin-derived peptide YGGFMRKV]	0.23	0.786	10	0.378	–
YGGAMRRV-NH2 [adrenorphin-derived peptide YGGAMRRV]	–	–	10	–	–
YGGFNRRV-NH2 [adrenorphin-derived peptide YGGFNRRV]	0.508	–	10	–	–
YGGFQRRV-NH2 [adrenorphin-derived peptide YGGFQRRV]	0.283	5	5	> 10	–
YGGFARRV-NH2 [adrenorphin-derived peptide YGGFARRV]	0.656	> 10	5	> 10	–
YGAFMRRV-NH2 [adrenorphin-derived peptide YGAFMRRV]	0.315	> 10	0.263	1.58	–
YGSFMRRV-NH2 [adrenorphin-derived peptide YGSFMRRV]	> 10	> 10	0.668	> 10	–
YGGLMRRV-NH2 [adrenorphin-derived peptide YGGLMRRV]	–	–	10	–	–
YGGYMRRV-NH2 [adrenorphin-derived peptide YGGYMRRV]	–	–	5	–	–
YGGFFRRV-NH2 [adrenorphin-derived peptide YGGFFRRV]	0.194	0.363	1.54	1.31	–
FGGFMRRVR-NH2	–	–	–	–	0.00353
YGGFMRRVR-NH2	0.0219	0.0587	0.0126	0.193	–
YGGFMRRVA-NH2	0.0575	0.174	0.0723	0.272	–
YGGFMRRVC-NH2 (also: dimer of two chains) [adrenorphin-derived peptide (…)2]	0.0794	0.271	0.0529	0.253	–
FGGWMRRK-NH2 [second-generation peptide FGGWMRRK]	–	–	–	–	0.00439
AYGGFMRRV-NH2	0.205	0.308	0.33	0.637	–
FGGWMRRV-NH2 [second-generation peptide FGGWMRRV]	–	–	–	–	0.0105

Binder	Supplementary Table 4: EC50 of β-arrestin-1 recruitment to KOR, U87 cells [1] [µM]	Supplementary Table 4: EC50 of β-arrestin-1 recruitment to MOR, U87 cells [2] [µM]	Supplementary Table 4: EC50 of β-arrestin-1 recruitment to ACKR3, U87 cells [3] [µM]	Supplementary Table 4: EC50 of β-arrestin-1 recruitment to DOR, U87 cells [4] [µM]	Supplementary Table 5: EC50 of β-arrestin-1 recruitment to ACKR3 [5] [µM]
FGGFMRRKR-NH2	–	–	–	–	0.00112
FGGWMRRKR-NH2	–	–	–	–	0.00734
GGFMRRV-NH2 [adrenorphin-derived peptide - GGFMRRV]	–	–	> 10	–	–
YSGFMRRV-NH2 [adrenorphin-derived peptide YSGFMRRV]	–	–	10	–	–
YAGFMRRV-NH2 [adrenorphin-derived peptide YAGFMRRV]	–	1.09	0.611	2.32	–
LGGFMRRV-NH2 [adrenorphin-derived peptide LGGFMRRV]	–	–	0.261	–	–
YGGFKRRV-NH2 [adrenorphin-derived peptide YGGFKRRV]	–	–	10	–	–
YGGFMRRK-NH2 [adrenorphin-derived peptide YGGFMRRK]	0.0192	0.252	0.037	0.527	–
YGGFMRRI-NH2 [adrenorphin-derived peptide YGGFMRRI]	0.0769	0.188	0.115	0.32	–
AGGFMRRV-NH2 [adrenorphin-derived peptide AGGFMRRV]	–	–	> 10	–	–
YGGFMRRQ-NH2 [adrenorphin-derived peptide YGGFMRRQ]	0.0631	0.183	0.11	0.259	–
YGGFMRRF-NH2 [adrenorphin-derived peptide YGGFMRRF]	0.0809	0.198	0.0735	0.212	–
YGGFMKRV-NH2 [adrenorphin-derived peptide YGGFMKRV]	0.416	0.0638	5	0.36	–
YGGFMARV-NH2 [adrenorphin-derived peptide YGGFMARV]	2.24	0.0354	5	0.147	–
YGGFMRRL-NH2 [adrenorphin-derived peptide YGGFMRRL]	0.0712	0.294	0.153	0.254	–
FGGFMRRF-NH2 [second-generation peptide FGGFMRRF]	–	–	–	–	0.011
FGGWMRRVR-NH2	–	–	–	–	0.00616
FGGFMRRV-NH2 [adrenorphin-derived peptide FGGFMRRV]	–	–	0.00933	–	–
YRGFMRRV-NH2 [adrenorphin-derived peptide YRGFMRRV]	–	–	5	–	–
YGGFMRAV-NH2 [adrenorphin-derived peptide YGGFMRAV]	1.25	0.682	–	0.308	–
